Target: T1, FaRAV1 (Fragaria × ananassa, UniProt A0A3Q8TB28 1-301)
T1 sequence: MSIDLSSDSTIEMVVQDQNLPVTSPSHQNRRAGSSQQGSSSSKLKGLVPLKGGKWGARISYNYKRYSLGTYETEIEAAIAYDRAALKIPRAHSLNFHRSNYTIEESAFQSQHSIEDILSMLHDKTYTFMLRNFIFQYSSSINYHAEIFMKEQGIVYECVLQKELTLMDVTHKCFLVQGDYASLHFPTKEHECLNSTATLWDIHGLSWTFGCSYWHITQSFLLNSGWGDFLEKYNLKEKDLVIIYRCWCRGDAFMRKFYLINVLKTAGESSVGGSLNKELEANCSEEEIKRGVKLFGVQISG
Assay: EMSA; 8 nM biotinylated probe; LightShift Chemiluminescent EMSA kit (Thermo), per manufacturer and Ge et al. 2017; 8 nM biotin probe; binding buffer, pH and temperature not stated
Conditions: protein: recombinant; tags: His (pET-32a; described as N-terminal FaRAV1-His fusion); label: 3'-biotin; blunt

B1: FaMYB10 promoter mutant probe (dsDNA)
DNA 1: AGGGTGGGGACTCGACAGTTTTTAGCTAACTTCCACATGCAATGGATCGAAAT
DNA 2: ATTTCGATCCATTGCATGTGGAAGTTAGCTAAAAACTGTCGAGTCCCCACCCT
binding result: no binding

Source: PMC7589338, “The strawberry transcription factor FaRAV1 positively regulates anthocyanin accumulation by activation of FaMYB10 and anthocyanin pathway genes”
